Experiment: soluble on expression in E. coli; label from the status in PepcDB or PDB records

| Sequence | soluble on expression in E. coli |
| --- | --- |
| MGSDKIHHHHHHMRTYTKEIQAIIDNVEKVIIGKENVITQSLAALLAGGHVLLEDVPGVGKTMLVRAFSRSIGLTFKRVQFTPDLLPSDLTGVSMYNQKTSQFEYRPGPLMGNIVLADEINRTSPKTQSALLEGMAEANVTVDGEIHTLPNPFFVMATQNPIEHEGTYPLPEAQLDRFLIKVKMGYPDFQQEMKLLTRFERDEPIETLESVITRDELLRMKEDVKAVHVSQPVKKYIVHLVQATRTHASLYLGASPRSSIALMKVAQAWAYMEGRSFVLPDDVKELLTPVLSHRLILTADARYHGQTAERILEQVKKEVAVPIQQDVESL | not soluble |
| MDIFPGRLYLKKEVETVEGLQEILAISANRCFRCGNTNPFLFGKMTCASCDREDCLYCRNCIVMGRVNSCQKLYYQKADILPERIESCLGWEGTLSPGQKKAASAVVSSIKQKVDMLLWAVAGSGKTEMMFEGMDLALKQGFRICIASPRVDVCLELYPRLQAVFKEIDIVCLYGDSKDKYQGEQFVVATTHQLIRFYDTFQVIFIDEVDAFPYAKDPFLEYAVRKARTKVGSTIIITATPEKKWQQECATGKRNFVKIPARYHRKQLPVPRTCWIGPWKKNLAQGKITLKLINWIKKAELKNQPVLIFFPEIEAMNQFAEALVNYDFTRPVTVHSADQLRKEKVEWLREGKIKLLLTTTILERGVTFKDVQVAVFGSEGRIFTEAALVQIAGRAGRKLTHPTGDVCFFHYGKTTEMNRAITHIKKMNQLGFKEGLLDD | not soluble |
| MGSDKIHHHHHHKDNTKVIAHRGYWKTEGSAQNSIRSLERASEIGAYGSEFDVHLTADNVLVVYHDNDIQGKHIQSCTYDELKDLQLSNGEKLPTLEQYLKRAKKLKNIRLIFELKSHDTPERNRDAARLSVQMVKRMKLAKRTDYISFNMDACKEFIRLCPKSEVSYLNGELSPMELKELGFTGLDYHYKVLQSHPDWVKDCKVLGMTSNVWTVDDPKLMEEMIDMGVDFITTDLPEETQKILHSRAQ | not soluble |
| MARHHHHHHMPEGKIIKALSGFYYVLDESEDSDKVIQCRGRGIFRKNKITPLVGDYVVYQAENDKEGYLMEIKERTNELIRPPICNVDQAVLVFSAVQPSFSTALLDRFLVLVEANDIQPIICITKMDLIEDQDTEDTIQAYAEDYRNIGYDVYLTSSKDQDSLADIIPHFQDKTTVFAGQSGVGKSSLLNAISPELGLRTNEISEHLGRGKHTTRHVELIHTSGGLVADTPGFSSLEFTDIEEEELGYTFPDIREKSSSCKFRGCLHLKEPKCAVKQAVEDGELKQYRYDHYVEFMTEIKDRKPRY | soluble |
| MSLQTQDIIRRSGTNSLTPPPQVRDHQEPVAKLIDVTTCIGCKACQVACSEWNDIRDEVGHNVGVYDNPADLTAKSWTVMRFSEVEDEESGKLEWLIRKDGCMHCADPGCLKACPSEGAIIQYANGIVDFQSEHCIGCGYCIAGCPFDVPRMNKDDNRVYKCTLCVDRVGVGQEPACVKTCPTGAIHFGTKESMKEVAAGRVAELKTRGFDNAGLYDPAGVGGTHVMYVLHHADKPQLYHGLPENPTISPTVTFWKGIWKPLAAVGFAATFAASIFHYVGVGPNRVEEEEEDDETTDPTPSETVAKAPEQTTSERSDEGETRK | not soluble |
| MSLETKTPNDAKNQVQTHERMKTSSEHVTPLDFNYPIHIVQAPQNHHVVGILTPRIQVSDNLKPYIDKFQDALINQIQTIFEKRGYQVLRFQDEKALNAQDKRKIFSVLDLKGWVGILEDLKMNLKDPNNPNLDTLVDQSSGSVWFNFYEPESNRVVHDFAVEVGTFQAMTYTYKHNNSGGLNSSNSIIHEYLEKNKEDAIHKILNRMYAVVMKKAVTELTKENIDKYREAIDRMKGFKSSMPQKKEGHHHHHH | soluble |
| MSLSQLEPRQQAFRNAMAHLSAAVNVITSNGPAGRCGITATAVCSVTDSPPTLMLCINRNSEMNTVFKANGRLCVNVLSGEHEEVARHFAGMTEVPMERRFALHDWREGLAGLPVLHGALANLQGRIAEVQEIGTHSVLLLELEDIQVLEQGDGLVYFSRSFHRLQCPEGGSHHHHHH | soluble |
| MSLKLEIIAIGGYEEVGRNMTAVNVDGEIIILDMGIRLDRVLIHEDTDISKLHSLELIEKGIIPNDTVMKNIEGEVKAIVLSHGHLDHIGAVPKLAHRYNAPIIGTPYTIELVKREILSEKKFDVRNPLIVLNAGESIDLTPNITLEFIRITHSIPDSVLPVLHTPYGSIVYGNDFKFDNFPVVGERPDYRAIKKVGKNGVLCFISETTRINHEGKTPPEIIASGLLKNDLLAADNDKHGIIVTTFSSHIARIKSITDIAEKMGRTPVLLGRSMMRFCGIAQDIGLVKFPEDLRIYGDPSSIEMALKNIVKEGKEKYLIIATGHQGEEGAVLSRMATNKTPYKFEKYDCVVFSADPIPNPMNAAQRYMLESRLKLLGVRIFKGAHVSGHAAKEDHRDMLRWLNPEHIIPSHGDFNLTAEYTKLAEEEGYRLGEDVHLLRNGQCLSFEREGHHHHHH | soluble |
| FSNAPISAEEQMIRAFVKSVEYMSPRKIGALVAIQRVRTLQEYISTGIPLDAKISAELLINIFIPNTPLHDGAVIIKEERIAVTSAYLPLTKNTGISKEFGTRHRAAIGLSEVSDALTFVVSEETGGISITYNGRFKHNL | not soluble |
| MAKKNNKTKIQKPEAALQTDVAQITATGRVIAEHPSNFITPQKMRALFEDAESGDIRAQHELFADIEERDSDIAANMGTRKRALLTLNWRVAPPRNATPEEEKLSDQAYEMMDSLPTLEDLIMDLMDAVGHGFSALEVEWVFSDGLYLPRNFIHRPQSWFKWDKDNGLLLRTRENPEGEALWPLGWVVHTQKSRSVQQARNGLFRTLSWLYMFKHYAVHDFAEFLELYGMPIRIGKYGAGATKEEKNTLLRAVAEIGHNAAGIMPEGMEIELHNAANGTTATSNPFLQMADWCEKSAARLILGQTLTSGADGKSSTNALGNIHNEVRRDLLVSDAKQVAQTITSQIIGPFLQINYPHADPNRVPKFEFDTREPKDIAVFADAIPKLVDVGVQIPESWVRDKLVIPDVQEGEAVLVRQVPDNPVNRTALAALSAHTVPSKATGRHQEILDGALDDALVEPDFNSQLNPMVRQAVAALNACNSYEEADAALNALYPNLDNAKLRTYMQQALFISDILGQDHA | soluble |
| GPGSMSTSAYRVASLLRQENNKLCSDKEKNTLARLTRDVEAFLDHAADVPPVVMETPYDDGETDLMEVHLSVVAGVLEPCEPASDVTAVDGVFMPTAKNHVAMDRKRVREAQAMLNLLGALSTDCNMPTASVAAATRCRLSLGSGEKADFESDDESIAVFDADELENDTSSSDGESNVHGRPPPRILELN | soluble |
| MDEQEIQRLVEEVSLQYFGMPFLHKAMFNSRLRTTGGRYLLNTHNIELNYRYYEMYGKEELVGIVKHELCHYHLHITGRGYKHRDKDFRELLKAVDAPRFCKRMINEEKGKKVYMYECMECSLQYVRRRQINTKRYVCGKCKGKLILIKKTSLEHHHHHH | not soluble |
| MLLIDKGHDIYKRNCPILQKKIEKCPPPAGKKDYAGCVPACSITNGFGGAGAYSDGKFNITSEFGGWMTDYLPASTVLELIRYVDEINLKHGATTSITDPMTDKVKEIERRAYAAGLKLLRAYVRHLGTEQNLAILQSIFEYLRERITMRFKTEVDDIVTERTEDGHEVKGVVLKNGETLTAEKVVIAPGRDGSVWLSKLLRKRRLRMINNQVDIGVRVETSNIVMQEINEHLYEGKFIFNTSVGTQVRTFCSNPSGHVVVENHSGIMLANGHAYKDPKLGSSNTNFALLVSHKFADPFDKPNEYAHEISRLANALSNGGIIVQKYGDILKGRRSTEKRIKEGFIEPTLKEAVPGDLGLVLPYNTMKSLIEMTEALNHVTPGLASEHTLFYGVEAKFYSARPKLNDRFETEIAGLYVGGDGAGITRGLAQASACGVWIARDIVEKLTRLEHHHHHH | not soluble |
| MGSDKIHHHHHHMTVSQVSTGTGLGTRHVAFDWGGVFTVGTFDGRSTQNVAERSGVPVEKVRESYFRHIRQLEVGAWTLPQFWETVQQETGMTLPYADFEALYLGSIHDNAPMYTTLAALPRSVRVGLLSNNYPVVSEHLGRDPRFARFDALVFSNEIGHKKPAPEAFAALEQKMGLPAAQVAFVDDVQENIDAAGAFGFHGILYHHDAHERFEQELKEWLRG | not soluble |
| VSKAVQYMAKRRIGALIVFEKETGLQDYIETGIPMNSDISQELLTNVFIPNTPLHDGAMIIQGSKIAVAASYLPLSDSVKISKSLGTRHRAAVGISEVSDAFTVVVSEETGDISVTFDGKLRRDISKDVFEELLAEHWFGAHFQKKGVNS | not soluble |

— the DeepSol protein solubility set
